Assay [1] concerns the target DT390-IL-13 single-chain fusion cytotoxin (monomer) (Corynebacterium diphtheriae | not stated). Description: SEC-MALS; SEC-MALS-DLS, Superose 6 Increase 10/300 GL, 4 °C, PBS pH 7.4.
For assay [2], the target named is extracellular domain of IL-13-RA2 human recombinant receptor protein (human) (UniProt Q14627). In words: ELISA.
Chain of UniProt Q14627 (Q14627 27-343): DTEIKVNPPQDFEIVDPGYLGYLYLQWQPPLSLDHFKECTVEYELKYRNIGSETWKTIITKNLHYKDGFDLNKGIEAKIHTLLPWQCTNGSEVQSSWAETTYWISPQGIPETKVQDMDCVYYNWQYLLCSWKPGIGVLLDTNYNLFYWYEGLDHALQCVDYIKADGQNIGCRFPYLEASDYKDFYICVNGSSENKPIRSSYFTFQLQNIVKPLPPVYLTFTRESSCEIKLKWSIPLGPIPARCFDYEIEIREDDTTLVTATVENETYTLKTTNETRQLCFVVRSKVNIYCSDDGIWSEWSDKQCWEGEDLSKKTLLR

The substance “DT390-IL-13 single-chain fusion cytotoxin (monomer)” registered a stoichiometry N in assay [1] of 2. In assay [2], the EC50 turned out to be 1.9 nM and the Kd is 0.0674 nM.
As for “DT390-IL-13 single-chain fusion cytotoxin, dimer (complex)”, the EC50 in assay [2] stood at 6.4 nM.
On the same count and under the same terms, the result for “DT390-IL-13 single-chain fusion cytotoxin, oligomers (complex)” reads 6.8 nM.

These data come from article PMC9406121.
